{"source": "patent US7029861B1", "about": "“LPS-response gene compositions and methods” (Board of Regents, The University of Texas System, priority 1998, dated 2006)", "key": {"[1]": {"target": "intact Tlr4 protein, endogenous in RAW 264.7 macrophages (mouse) (UniProt Q9QUK6)", "test": "cell-based or functional assay"}, "RAW 264.7 cells": {"test_system": "RAW 264.7 cells", "test": "LPS-induced TNF production (EC50 shift) in RAW 264.7 clones expressing Tlr4 constructs, L-929 cytotoxicity assay", "format": "cell-based, murine", "settings": "for effect on LPS signaling (in words): over-expression of truncated constructs in RAW 264.7 cells; for leftward shift of the LPS EC50 curve (augmentation of the LPS response): over-expression in RAW 264.7, TNF production; for rightward EC50 shift (inhibition of LPS signaling): membrane-associated cytoplasmic domain constructs lacking the entire ectodomain", "description": "FIG. 15C. Composite analysis of the shift in EC50 caused by expression of Tlr4^Lps-n and Tlr4^Lps-d in RAW 264.7 cells. Each point represents an EC50 determination performed on ten independent clones at the stated LPS concentration. For each clone, four replicate assays were performed at each concentration. […] Transfected macrophages were plated in 24 well plates at a density of 5×10^5 cells per well, and covered with 1.0 ml of DMEM supplemented with 10% FBS. LPS was added to each well at the concentration indicated. After 15 hours of incubation the medium was harvested, and TNF concentration was assayed in the standard L-929 cytotoxicity system^36, using cycloheximide at a concentration of 100·g/ml to potentiate killing. After 15 hours of exposure to diluted macrophage medium or to mouse TNF applied at a range of 8 standard concentrations, the number of viable cells was determined by staining with crystal violet. A standard curve relating % cytotoxicity to TNF concentration (not shown) was generated using Prism 3.0, and was based on an assumption of sigmoidicity. Variance among replicate samples was typically beneath 5% of the mean, and departures of individual samples from the sigmoid plot were typically smaller still. Linear estimates of TNF concentration in unknown samples were based on non-linear interpolation from the standard curve (also performed using Prism 3.0). The curves shown were generated assuming sigmoidicity of response with variable slope for each curve, and further assigning a maximum response value of 1760 pg TNF, which yielded an optimal fit for the most responsive curve. Error bars indicate standard deviation among clones at each LPS concentration. Log EC50 values and standard error values are shown in the inset table.\nFIG. 15D. Shifts of the log EC50, determined for individual clones. A more conservative approach, in which log EC50 values were determined for individual clones transfected with vector alone, or with the Tlr4^Lps-n or Tlr4^Lps-d constructs. The log EC50 data were then represented as a scatter plot, in which each point represents the log EC50 determination of a single clone (confidence limits not shown for the sake of simplicity), and is derived from 24 separate TNF assays performed on samples stimulated over a 10^4-fold range of LPS concentration (100 pg/ml to 1·g/ml, as well as an unstimulated control). In most instances, two determinations of log EC50 were made independently for each clone. The mean and standard error of each cluster is shown in the inset, together with p values defining the likelihood that the EC50 displacements are attributable to chance. Data were analyzed by means of a one-tailed t test, using Welch's correction for unequal variance.\nIn order to directly examine the role of Tlr4 as a transducer of the LPS signal in macrophages, the inventors expressed the normal mouse protein—and various mutant forms—in RAW 264.7 macrophages have been expressed (FIG. 14; Table VIII). These cells of murine origin are highly responsive to LPS, and are known to express the Tlr4 mRNA (Poltorak et al, 1998b). Unlike cell lines of non-myeloid origin (i.e., 293 cells or CHO cells), they express all proteins required for the elicitation of a biologically relevant response to LPS (e.g., TNF production). As such, they may be used to determine whether Tlr4 is a limiting factor in the initiation of an LPS signal, and to examine the mechanism by which the Tlr4^Lps-d allele exerts its dominant inhibitory effect on signaling. This was determined by performing more than 3,000 assays of TNF production, induced over an extensive range of LPS concentrations in numerous stable clones, since individual clones show considerable background variability in LPS responses. Moreover, because culture conditions can affect the sensitivity of the TNF assay and production of TNF by LPS-stimulated cells, all transfected and control clones were induced and assayed in parallel. […]"}}, "note": "Entries after “also recorded” stand apart in the source; their conditions may differ."}
{"molecule": "flag-tagged Tlr4^Lps-n cytoplasmic domain construct, residues 630-835 (from UniProt Q9QUK6 630-835) (receptor)", "values": [{"measurement": "shift of the LPS EC50 for TNF production in RAW 264.7 clones", "setting": "[1]", "value": 4, "unit": "fold"}]}
{"molecule": "flag-tagged Tlr4^Lps-d cytoplasmic domain construct, residues 630-835 (P712H) (from UniProt Q9QUK6 630-835) (receptor)", "values": [{"measurement": "shift of the LPS EC50 for TNF production in RAW 264.7 clones", "setting": "[1]", "value": 39, "unit": "fold"}]}
{"molecule": "Ectodomain: membrane-anchored truncated Tlr4, residues 22–660, lacking the entire cytoplasmic domain (protein, left off: small tags and cut ends, membrane-anchored truncated Tlr4, residues 22–660, lacking the entire cytoplasmic domain) PGSLNPCIEVVPNITYQCMDQKLSKVPDDIPSSTKNIDLSFNPLKILKSYSFSNFSELQWLDLSRCEIETIEDKAWHGLHHLSNLILTGNPIQSFSPGSFSGLTSLENLVAVETKLASLESFPIGQLITLKKLNVAHNFIHSCKLPAYFSNLTNLVHVDLSYNYIQTITVNDLQFLRENPQVNLSLDMSLNPIDFIQDQAFQGIKLHELTLRGNFNSSNIMKTCLQNLAGLHVHRLILGEFKDERNLEIFEPSIMEGLCDVTIDEFRLTYTNDFSDDIVKFHCLANVSAMSLAGVSIKYLEDVPKHFKWQSLSIIRCQLKQFPTLDLPFLKSLTLTMNKGSISFKKVALPSLSYLDLSRNALSFSGCCSYSDLGTNSLRHLDLSFNGAIIMSANFMGLEELQHLDFQHSTLKRVTEFSAFLSLEKLLYLDISYTNTKIDFDGIFLGLTSLNTLKMAGNSFKDNTLSNVFANTTNLTFLDLSKCQLEQISWGVFDTLHRLQLLNMSHNNLLFLDSSHYNQLYSLSTLDCSFNRIETSKGILQHFPKSLAFFNLTNNSVACICEHQKFLQWVKEQKQFLVNVEQMTCATPVEMNTSLVLDFNNSTCYMYKTIISVSVVSVIVVSTVAFLIYHFYFHLILIA", "values": [{"measurement": "effect on LPS signaling (in words)", "setting": "RAW 264.7 cells; listed as Tlr4 ectodomain", "value": "inhibited the LPS response only weakly, if at all; also recorded: fails to inhibit LPS signaling"}, {"measurement": "effect on LPS signaling (in words)", "setting": "RAW 264.7 cells; listed as truncated version of the Tlr4 protein", "value": "only a weak inhibitory effect on LPS signaling"}]}
{"molecule": "Tlr4^Lps-n: flag-tagged full-length normal mouse Tlr4, residues 22–835, expressed in RAW 264.7 cells (protein, left off: small tags and cut ends, flag-tagged full-length normal mouse Tlr4, residues 22–835, expressed in RAW 264.7 cells) PGSLNPCIEVVPNITYQCMDQKLSKVPDDIPSSTKNIDLSFNPLKILKSYSFSNFSELQWLDLSRCEIETIEDKAWHGLHHLSNLILTGNPIQSFSPGSFSGLTSLENLVAVETKLASLESFPIGQLITLKKLNVAHNFIHSCKLPAYFSNLTNLVHVDLSYNYIQTITVNDLQFLRENPQVNLSLDMSLNPIDFIQDQAFQGIKLHELTLRGNFNSSNIMKTCLQNLAGLHVHRLILGEFKDERNLEIFEPSIMEGLCDVTIDEFRLTYTNDFSDDIVKFHCLANVSAMSLAGVSIKYLEDVPKHFKWQSLSIIRCQLKQFPTLDLPFLKSLTLTMNKGSISFKKVALPSLSYLDLSRNALSFSGCCSYSDLGTNSLRHLDLSFNGAIIMSANFMGLEELQHLDFQHSTLKRVTEFSAFLSLEKLLYLDISYTNTKIDFDGIFLGLTSLNTLKMAGNSFKDNTLSNVFANTTNLTFLDLSKCQLEQISWGVFDTLHRLQLLNMSHNNLLFLDSSHYNQLYSLSTLDCSFNRIETSKGILQHFPKSLAFFNLTNNSVACICEHQKFLQWVKEQKQFLVNVEQMTCATPVEMNTSLVLDFNNSTCYMYKTIISVSVVSVIVVSTVAFLIYHFYFHLILIAGCKKYSRGESIYDAFVIYSSQNEDWVRNELVKNLEEGVPRFHLCLHYRDFIPGVAIAANIIQEGFHKSRKVIVVVSRHFIQSRWCIFEYEIAQTWQFLSSRSGIIFIVLEKVEKSLLRQQVELYRLLSRNTYLEWEDNPLGRHIFWRRLKNALLDGKASNPEQTAEEEQETATWT", "values": [{"measurement": "leftward shift of the LPS EC50 curve (augmentation of the LPS response)", "setting": "RAW 264.7 cells; composite EC50 analysis", "value": 30, "unit": "fold"}, {"measurement": "leftward shift of the LPS EC50 curve (augmentation of the LPS response)", "setting": "RAW 264.7 cells; composite EC50 analysis, listed as Tlr4", "value": "about 30 fold"}]}
{"molecule": "Tlr4^Lps-d: flag-tagged full-length mouse Tlr4 with P712H mutation, residues 22–835, expressed in RAW 264.7 cells (protein, left off: small tags and cut ends, flag-tagged full-length mouse Tlr4 with P712H mutation, residues 22–835, expressed in RAW 264.7 cells) PGSLNPCIEVVPNITYQCMDQKLSKVPDDIPSSTKNIDLSFNPLKILKSYSFSNFSELQWLDLSRCEIETIEDKAWHGLHHLSNLILTGNPIQSFSPGSFSGLTSLENLVAVETKLASLESFPIGQLITLKKLNVAHNFIHSCKLPAYFSNLTNLVHVDLSYNYIQTITVNDLQFLRENPQVNLSLDMSLNPIDFIQDQAFQGIKLHELTLRGNFNSSNIMKTCLQNLAGLHVHRLILGEFKDERNLEIFEPSIMEGLCDVTIDEFRLTYTNDFSDDIVKFHCLANVSAMSLAGVSIKYLEDVPKHFKWQSLSIIRCQLKQFPTLDLPFLKSLTLTMNKGSISFKKVALPSLSYLDLSRNALSFSGCCSYSDLGTNSLRHLDLSFNGAIIMSANFMGLEELQHLDFQHSTLKRVTEFSAFLSLEKLLYLDISYTNTKIDFDGIFLGLTSLNTLKMAGNSFKDNTLSNVFANTTNLTFLDLSKCQLEQISWGVFDTLHRLQLLNMSHNNLLFLDSSHYNQLYSLSTLDCSFNRIETSKGILQHFPKSLAFFNLTNNSVACICEHQKFLQWVKEQKQFLVNVEQMTCATPVEMNTSLVLDFNNSTCYMYKTIISVSVVSVIVVSTVAFLIYHFYFHLILIAGCKKYSRGESIYDAFVIYSSQNEDWVRNELVKNLEEGVPRFHLCLHYRDFIHGVAIAANIIQEGFHKSRKVIVVVSRHFIQSRWCIFEYEIAQTWQFLSSRSGIIFIVLEKVEKSLLRQQVELYRLLSRNTYLEWEDNPLGRHIFWRRLKNALLDGKASNPEQTAEEEQETATWT", "values": [{"measurement": "composite range of responsiveness (mean EC50 of Tlr4^Lps-d transfected clones/mean EC50 of Tlr4^Lps-n transfected clones)", "setting": "RAW 264.7 cells; LPS EC50 measured for each individual clone", "value": 1120, "unit": "fold"}, {"measurement": "difference in the mean response at the EC50 point, Tlr4^Lps-n vs Tlr4^Lps-d over-expression", "setting": "RAW 264.7 cells; composite EC50 analysis", "value": "74,000 fold"}, {"measurement": "shift to the right of the LPS EC50 curve (suppression of the LPS response)", "setting": "RAW 264.7 cells; composite EC50 analysis, full-length protein in RAW 264.7, TNF production", "value": 2600, "unit": "fold"}]}
{"molecule": "Tlr4^Lps-d Cyt. Dom.: membrane-associated Tlr4 cytoplasmic domain with P712H, residues 630–835, with flag peptide, lacking the ectodomain (protein, left off: small tags and cut ends, membrane-associated Tlr4 cytoplasmic domain with P712H, residues 630–835, with flag peptide, lacking the ectodomain) TIISVSVVSVIVVSTVAFLIYHFYFHLILIAGCKKYSRGESIYDAFVIYSSQNEDWVRNELVKNLEEGVPRFHLCLHYRDFIHGVAIAANIIQEGFHKSRKVIVVVSRHFIQSRWCIFEYEIAQTWQFLSSRSGIIFIVLEKVEKSLLRQQVELYRLLSRNTYLEWEDNPLGRHIFWRRLKNALLDGKASNPEQTAEEEQETATWT", "values": [{"measurement": "rightward EC50 shift (inhibition of LPS signaling)", "setting": "RAW 264.7 cells", "value": 39, "unit": "fold"}]}
{"molecule": "Tlr4^Lps-n Cyt. Dom.: membrane-associated Tlr4 cytoplasmic domain, normal sequence, residues 630–835, with flag peptide, lacking the ectodomain (protein, left off: small tags and cut ends) TIISVSVVSVIVVSTVAFLIYHFYFHLILIAGCKKYSRGESIYDAFVIYSSQNEDWVRNELVKNLEEGVPRFHLCLHYRDFIPGVAIAANIIQEGFHKSRKVIVVVSRHFIQSRWCIFEYEIAQTWQFLSSRSGIIFIVLEKVEKSLLRQQVELYRLLSRNTYLEWEDNPLGRHIFWRRLKNALLDGKASNPEQTAEEEQETATWT", "values": [{"measurement": "rightward EC50 shift (inhibition of LPS signaling)", "setting": "RAW 264.7 cells", "value": 4, "unit": "fold"}]}
